For the experiment, the target named is GST-DLG1 PDZ domains 1-2 fusion protein (human) (UniProt Q12959). The experiment can be described thus: variant of the G assay; 100 uM unlabeled 8-mer with 20 uM biotin-labeled AA2L on immobilized GST-DLG1.

For “CLASP-2 C-terminal 8-mer peptide MTSSSSVV (unlabeled)”, the percent inhibition of labeled AA2L CLASP-2 peptide binding was greater than 50%.

The record behind these values is patent publication US6942981.
